System: Arabidopsis thaliana
Experiment: Seed size of transgenic plants carrying the CaMV-Bce44B-NOS transgene
Type: in vivo
Conditions: primary generation of transgenic plants
Description: Transgenic plants (Brassica napus, Arabidopsis thaliana and Lycopersicon esculentum) with altered plastid protein transport capacity were produced by introducing a transgene construct consisting of DNA encoding the Bce44B protein and a 5′ untranslated region immediately upstream of the Bce44B coding sequence. Expression of the construct was obtained by linking the cauliflower mosaic virus 35S promoter (Odell, J. T. et al. (1985) Nature 313:810) upstream. Transcriptional termination was facilitated by the gene encoding nopaline synthase (NOS) found in Agrobacterium Ti plasmids or their derivatives such as pBI101 (Clontech). Construction of the 35S CAMV-Bce44B-NOS transgene construct is diagrammed in FIG. 6.
For the seed transformation protocol (Feldmann, K., (1992) In: Methods in Arabidopsis Research (eds. C. Koncz, N. H. Chua, J. Schell) pp 274-289), 2.4 grams of Arabidopsis thaliana (ecotype Wassilewskija) seeds were surface sterilized for 8 minutes in 5.25% (wlv) sodium hypochlorite containing 0.15% (v/v) Tween 20, then rinsed 6-7 times with sterile water. The seeds were apportioned among 40 125 ml flasks containing 40 ml cocultivation medium (CCM) (1×MS salts, 40 g/l sucrose, 10 mg/l thiamine, […] pyridoxine, […] nicotinic acid and 100 mg/l inositol, pH 6.0 with KOH). […]

B1: Bce44B: plastid transport protein, Brassica napus 44 kDa chloroplast envelope protein, member of Com44/Cim44, encoded by SEQ ID NO:1 (protein)
chain: MQTAMKTMMNQMNTQNSQFNNPGFPTGAGAGAGSPFPFPFPPQTSPTTSPFQPQSQSSGATVDLTATKVDRPPVSKPQPTPIPPTKSIEVYKPSVVVEENKAMKEEKNYAFEDVSPEETTKESPFSNYEEVSETSAPKETRLFDDVLQNGAAPANGATASDVFQSLGAGKGWAGGSVEVLEKMIEYPTFQKMLYPHLPEEMRNPESFKWVRKNPQYRQQLQDMLNNMSESGEWDKRMTETLKNFDPNSPEVKQGFDQLGLTPEEVISKIMENPDVSMAFQNPRVEAALMDCSENPMNIMKYQNDKEVMDVFNKISQLFPGLTG
- seed size relative to wildtype counterparts or pEND4K-only control plants: approximately twice
